Experimental data as given in patent US20220112270.

What was measured:
[1] = tested on: recombinant human alpha 1-antitrypsin (AAT) derived from recombinant CHO cells
[2] = target: another recombinant AAT (R&D systems) (UniProt P01009)
[3] = tested on: mouse AAT in mouse plasma
[4] = target: plasma-derived human alpha 1-antitrypsin (AAT) (UniProt P01009)

Q: trypsin was tested. Which “trypsin activity (fluorogenic peptide substrate)” value (shortened to “trypsin activity”) [1] did it give?
A: At a concentration of 5 ng/ml, the recombinant AAT described and obtained by the methods presented herein (ExcellGene) drastically reduced trypsin activity

Q: And the “trypsin activity” value [2]?
A: drastically reduced trypsin activity in a similar manner as ... another recombinant AAT (R&D systems)

Q: What about the “trypsin activity” value [3] of the same substance?
A: drastically reduced trypsin activity in a similar manner as ... mouse plasma diluted from a sample that contained about 1.2 g/L mouse AAT

Q: What about the “trypsin activity” value [4] of the same substance?
A: drastically reduced trypsin activity in a similar manner as a plasma-derived AAT (Prolastin)
